The values below are quoted from earlier work in article PMC10823516.

The data set addresses HER2 ECD (Homo sapiens) (UniProt P04626).

For orientation: Kd means a measure of binding affinity in units of concentration. On to Trastuzumab Fab Fab, for which the Kd is 2 nM.
